Data reported in IntAct's records for PubMed 32296183.

What was measured:
[1] = molecular target: T1, cgrf1_human CGRRF1 (UniProt Q99675)
T1 sequence: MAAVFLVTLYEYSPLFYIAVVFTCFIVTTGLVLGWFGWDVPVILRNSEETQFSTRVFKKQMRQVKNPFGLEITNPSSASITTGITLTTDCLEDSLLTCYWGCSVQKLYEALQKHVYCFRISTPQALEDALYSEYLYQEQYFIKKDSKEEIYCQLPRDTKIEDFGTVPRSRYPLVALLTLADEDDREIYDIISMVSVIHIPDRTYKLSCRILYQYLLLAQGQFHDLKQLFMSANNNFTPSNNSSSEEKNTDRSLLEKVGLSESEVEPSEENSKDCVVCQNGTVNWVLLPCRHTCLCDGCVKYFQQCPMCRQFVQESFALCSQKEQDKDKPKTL

[2] = molecular target: T2, jam1_human F11R (UniProt Q9Y624)
T2 sequence: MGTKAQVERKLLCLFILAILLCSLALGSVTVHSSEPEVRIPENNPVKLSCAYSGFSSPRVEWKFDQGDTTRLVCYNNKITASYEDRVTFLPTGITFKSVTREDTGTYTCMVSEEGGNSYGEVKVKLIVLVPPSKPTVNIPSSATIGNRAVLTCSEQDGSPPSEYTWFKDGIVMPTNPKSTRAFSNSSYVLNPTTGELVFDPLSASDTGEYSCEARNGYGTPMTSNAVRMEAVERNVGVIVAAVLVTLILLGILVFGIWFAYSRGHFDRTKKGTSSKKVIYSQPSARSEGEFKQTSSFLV

[3] = molecular target: T3, kash5_human KASH5 (UniProt Q8N6L0)
T3 sequence: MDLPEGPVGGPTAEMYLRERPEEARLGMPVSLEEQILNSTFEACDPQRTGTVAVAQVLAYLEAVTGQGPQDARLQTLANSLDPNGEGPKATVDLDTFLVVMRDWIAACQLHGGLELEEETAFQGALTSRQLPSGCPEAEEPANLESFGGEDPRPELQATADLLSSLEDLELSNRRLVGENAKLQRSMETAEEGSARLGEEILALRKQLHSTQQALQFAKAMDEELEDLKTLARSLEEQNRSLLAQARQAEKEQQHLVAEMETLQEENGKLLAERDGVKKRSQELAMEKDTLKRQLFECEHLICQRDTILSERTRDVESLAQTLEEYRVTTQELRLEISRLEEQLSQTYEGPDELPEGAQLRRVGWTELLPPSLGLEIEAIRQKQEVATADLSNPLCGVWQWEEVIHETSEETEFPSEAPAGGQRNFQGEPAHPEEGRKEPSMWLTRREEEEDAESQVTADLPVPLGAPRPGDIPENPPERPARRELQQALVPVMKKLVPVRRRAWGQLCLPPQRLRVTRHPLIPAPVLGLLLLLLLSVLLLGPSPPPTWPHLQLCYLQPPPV

[4] = molecular target: T4, tmem9_human TMEM9 (UniProt Q9P0T7)
T4 sequence: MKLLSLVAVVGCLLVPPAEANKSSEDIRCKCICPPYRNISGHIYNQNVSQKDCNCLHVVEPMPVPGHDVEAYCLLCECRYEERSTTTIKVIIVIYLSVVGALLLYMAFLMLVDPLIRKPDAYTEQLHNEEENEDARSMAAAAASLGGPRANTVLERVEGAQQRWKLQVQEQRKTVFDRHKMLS

[5] = molecular target: T5, FAM209A (UniProt Q5JX71)
T5 sequence: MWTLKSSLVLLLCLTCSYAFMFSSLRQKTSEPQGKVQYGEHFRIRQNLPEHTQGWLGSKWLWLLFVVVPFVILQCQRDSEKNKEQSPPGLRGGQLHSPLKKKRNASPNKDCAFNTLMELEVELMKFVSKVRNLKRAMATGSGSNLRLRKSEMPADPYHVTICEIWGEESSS

Substance: Acyltransferase PGAP2 (Homo sapiens) (from UniProt Q9UHJ9-5) T160I
- effect of a mutation on the interaction [1]: with no effect
- effect of a mutation on the interaction [2]: disrupting interaction strength
- effect of a mutation on the interaction [3]: disrupting interaction strength
- effect of a mutation on the interaction [4]: with no effect
- effect of a mutation on the interaction [5]: with no effect
